This is an account of results in US7410639 (VEGENICS, dated 2008).

The experiment has as its target T1, VEGFR2-EpoR chimeric receptor (mouse VEGFR2 extracellular domain with mouse EpoR transmembrane and … (mouse, UniProt P35918 20-762; P14753 250-507, limits assumed).
T1 construct: extracellular domain;domain: transmembrane and cytoplasmic domains; Expressed on the surface of Ba/F3 cells (line Ba/F3-NYK-EpoR); also called VEGF receptor-2; Flk-1
The experiment in a line: Ba/F3 VEGFR2-EpoR bioassay (binding inferred from proliferation). As for the experimental part: Recombinant VEGFDΔNΔC, and material purified by M2 affinity chromatography, was assessed using the VEGFR2 bioassay. Bioassay cells (10^4), washed to remove IL-3, were incubated with aliquots of conditioned medium from VEGF-D transfected COS cells, fraction #1 from the affinity column (void volume), or fraction #3 from the affinity column (containing VEGFDΔNΔC). All samples were tested at an initial concentration of 20% (i.e., ⅕) followed by doubling dilutions. Cells were allowed to incubate for 48 hours at 37° C. in a humidified atmosphere of 10% CO_2. Cell proliferation was quantitated by the addition of 1 μCi of ^3H-thymidine and counting the amount incorporated over a period of 4 hours.
The bioassay for the capacity of polypeptides to bind to VEGF receptor-2 is described in detail in Example 7. Aliquots of fractions eluted from the M2 affinity column, containing the VEGFDΔNΔC protein, were diluted in medium and tested in the VEGFR2 bioassay as previously described.

T1 sequence (P35918 other isoform, or with tags, fused parts or gaps mutant limits assumed): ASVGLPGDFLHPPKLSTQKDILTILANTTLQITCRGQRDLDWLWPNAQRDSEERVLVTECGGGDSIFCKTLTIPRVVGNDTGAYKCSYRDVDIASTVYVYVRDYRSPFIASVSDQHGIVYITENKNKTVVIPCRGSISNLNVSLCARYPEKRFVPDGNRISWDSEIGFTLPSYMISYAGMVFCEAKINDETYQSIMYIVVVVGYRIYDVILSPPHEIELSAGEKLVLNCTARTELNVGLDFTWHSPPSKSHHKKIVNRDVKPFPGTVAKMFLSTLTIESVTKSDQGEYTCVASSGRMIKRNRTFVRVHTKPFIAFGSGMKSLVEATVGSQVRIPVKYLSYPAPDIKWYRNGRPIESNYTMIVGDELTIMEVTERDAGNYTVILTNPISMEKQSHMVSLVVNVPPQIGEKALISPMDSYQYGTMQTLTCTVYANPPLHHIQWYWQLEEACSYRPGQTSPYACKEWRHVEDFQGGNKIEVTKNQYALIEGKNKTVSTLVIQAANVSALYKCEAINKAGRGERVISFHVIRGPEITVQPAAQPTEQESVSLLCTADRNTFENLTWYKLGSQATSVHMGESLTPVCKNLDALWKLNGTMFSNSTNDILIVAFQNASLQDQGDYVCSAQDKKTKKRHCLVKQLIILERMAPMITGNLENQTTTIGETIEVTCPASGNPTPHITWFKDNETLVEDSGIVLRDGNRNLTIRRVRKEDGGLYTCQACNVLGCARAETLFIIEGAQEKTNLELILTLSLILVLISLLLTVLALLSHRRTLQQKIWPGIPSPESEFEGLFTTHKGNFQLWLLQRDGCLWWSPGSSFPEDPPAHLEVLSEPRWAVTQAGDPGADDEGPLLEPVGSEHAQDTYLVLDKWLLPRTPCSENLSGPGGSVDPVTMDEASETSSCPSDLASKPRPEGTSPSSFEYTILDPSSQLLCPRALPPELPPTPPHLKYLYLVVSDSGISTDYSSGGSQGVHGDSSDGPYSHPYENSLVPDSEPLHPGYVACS

B1: VEGFDΔNΔC (ligand)
chain: FYDIETLKVIDEEWQRTQCSPRETCVEVASELGKSTNTFFKPPCVNVFRCGGCCNEESLICMNTSTSYISKQLFEISVPLTSVPELVPVKVANHTGCKCLPTAPRHPYS
notes: also called internal VEGF-D polypeptide; fraction #3; not shown: FLAG octapeptide at the N-terminus
For B1, the binding result is on record as “binds”.
